{"source": "paper PMC5319408", "origin": "cited, not measured here", "molecular_target": "cytochrome P450cam (CYP101, oxidized) (Pseudomonas putida) (UniProt P00183)", "sequence (P00183 2-415)": "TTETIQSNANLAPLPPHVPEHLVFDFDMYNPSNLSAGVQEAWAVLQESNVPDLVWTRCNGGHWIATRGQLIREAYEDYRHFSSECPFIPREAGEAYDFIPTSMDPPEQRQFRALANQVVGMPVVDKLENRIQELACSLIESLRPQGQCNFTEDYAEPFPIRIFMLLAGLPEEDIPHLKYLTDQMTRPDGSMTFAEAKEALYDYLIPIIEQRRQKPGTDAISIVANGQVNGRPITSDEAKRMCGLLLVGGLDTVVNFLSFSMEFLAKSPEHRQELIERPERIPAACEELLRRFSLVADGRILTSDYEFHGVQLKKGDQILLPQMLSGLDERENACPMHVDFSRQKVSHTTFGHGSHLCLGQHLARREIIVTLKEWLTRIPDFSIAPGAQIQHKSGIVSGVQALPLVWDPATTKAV", "data": [{"substance": "putidaredoxin (oxidized) (from UniProt P00259)", "values": [{"measurement": "Kd", "value": 17, "unit": "µM"}]}]}
